B1: Q38H/I41A/D60bV/F60eR/Y60gW/D96I/F97N/T98G/F99L/C122S/G151H/Q175L/Q192D (enzyme)
chain: VVGGTDADEGEWPWQVSLHALGHGHACGASLISPNWLVSAAHCYIDVRGRRWSDPTQWTAFLGLHDQSQRSAPGVQERRLKRIISHPFFNINGLDYDIALLELEKPAEYSSMVRPISLPDASHVFPAGKAIWVTGWGHTQYGGTHALILQKGEIRVINQTTCENLLPQLITPRMMCVGFLSGGVDSCDGDSGGPLSSVEADGRIFQAGVVSWGDGCAQRNKPGVYTRLPLFRDWIKENTGV
B2: Q38H/I41A/D60bV/F60eR/Y60gW/D96P/ins97aN/F97W/T98G/F99L/C122S/G151N/Q175L/Q192D (enzyme)
chain: VVGGTDADEGEWPWQVSLHALGHGHACGASLISPNWLVSAAHCYIDVRGRRWSDPTQWTAFLGLHDQSQRSAPGVQERRLKRIISHPFFNPWNGLDYDIALLELEKPAEYSSMVRPISLPDASHVFPAGKAIWVTGWGHTQYGGTNALILQKGEIRVINQTTCENLLPQLITPRMMCVGFLSGGVDSCDGDSGGPLSSVEADGRIFQAGVVSWGDGCAQRNKPGVYTRLPLFRDWIKENTGV
B3: Q38H/I41A/D60bT/F60eK/Y60gW/F97T/ins97aE/T98G/F99L/C122S/Q175L/Q192A (enzyme)
chain: VVGGTDADEGEWPWQVSLHALGHGHACGASLISPNWLVSAAHCYIDTRGKRWSDPTQWTAFLGLHDQSQRSAPGVQERRLKRIISHPFFNDTEGLDYDIALLELEKPAEYSSMVRPISLPDASHVFPAGKAIWVTGWGHTQYGGTGALILQKGEIRVINQTTCENLLPQLITPRMMCVGFLSGGVDSCAGDSGGPLSSVEADGRIFQAGVVSWGDGCAQRNKPGVYTRLPLFRDWIKENTGV
B4: H40R/I41H/F97D/F99L/C122S/Q175M/Q192G/D217V/K224Y (enzyme)
chain: VVGGTDADEGEWPWQVSLHALGQGRHCGASLISPNWLVSAAHCYIDDRGFRYSDPTQWTAFLGLHDQSQRSAPGVQERRLKRIISHPFFNDDTLDYDIALLELEKPAEYSSMVRPISLPDASHVFPAGKAIWVTGWGHTQYGGTGALILQKGEIRVINQTTCENLLPQMITPRMMCVGFLSGGVDSCGGDSGGPLSSVEADGRIFQAGVVSWGVGCAQRNYPGVYTRLPLFRDWIKENTGV
B5: I41G/F97I/F99L/C122S/G151L/Q175M/Q192S/D217V (enzyme)
chain: VVGGTDADEGEWPWQVSLHALGQGHGCGASLISPNWLVSAAHCYIDDRGFRYSDPTQWTAFLGLHDQSQRSAPGVQERRLKRIISHPFFNDITLDYDIALLELEKPAEYSSMVRPISLPDASHVFPAGKAIWVTGWGHTQYGGTLALILQKGEIRVINQTTCENLLPQMITPRMMCVGFLSGGVDSCSGDSGGPLSSVEADGRIFQAGVVSWGVGCAQRNKPGVYTRLPLFRDWIKENTGV
B6: Q38H/I41S/D60bT/F60eS/Y60gW/D96V/F97G/ins97aV/T98P/F99L/C122S/G151H/Q175L/Q192D (enzyme)
chain: VVGGTDADEGEWPWQVSLHALGHGHSCGASLISPNWLVSAAHCYIDTRGSRWSDPTQWTAFLGLHDQSQRSAPGVQERRLKRIISHPFFNVGVPLDYDIALLELEKPAEYSSMVRPISLPDASHVFPAGKAIWVTGWGHTQYGGTHALILQKGEIRVINQTTCENLLPQLITPRMMCVGFLSGGVDSCDGDSGGPLSSVEADGRIFQAGVVSWGDGCAQRNKPGVYTRLPLFRDWIKENTGV
B7: Q38H/I41S/D60bT/F60eS/Y60gW/D96K/F97G/ins97aV/T98P/F99L/C122S/T150S/G151H/Q175L/Q192D/Q209L (enzyme)
chain: VVGGTDADEGEWPWQVSLHALGHGHSCGASLISPNWLVSAAHCYIDTRGSRWSDPTQWTAFLGLHDQSQRSAPGVQERRLKRIISHPFFNKGVPLDYDIALLELEKPAEYSSMVRPISLPDASHVFPAGKAIWVTGWGHTQYGGSHALILQKGEIRVINQTTCENLLPQLITPRMMCVGFLSGGVDSCDGDSGGPLSSVEADGRIFLAGVVSWGDGCAQRNKPGVYTRLPLFRDWIKENTGV
B8: Q38H/I41A/D60bV/F60eI/Y60gW/F97T/ins97aE/T98G/F99L/C122S/G151N/Q175L/Q192D (enzyme)
chain: VVGGTDADEGEWPWQVSLHALGHGHACGASLISPNWLVSAAHCYIDVRGIRWSDPTQWTAFLGLHDQSQRSAPGVQERRLKRIISHPFFNDTEGLDYDIALLELEKPAEYSSMVRPISLPDASHVFPAGKAIWVTGWGHTQYGGTNALILQKGEIRVINQTTCENLLPQLITPRMMCVGFLSGGVDSCDGDSGGPLSSVEADGRIFQAGVVSWGDGCAQRNKPGVYTRLPLFRDWIKENTGV
B9: Q38H/I41S/D60bT/F60eS/Y60gW/D96I/F97N/T98G/F99L/C122S/G151N/Q175L/Q192D (enzyme)
chain: VVGGTDADEGEWPWQVSLHALGHGHSCGASLISPNWLVSAAHCYIDTRGSRWSDPTQWTAFLGLHDQSQRSAPGVQERRLKRIISHPFFNINGLDYDIALLELEKPAEYSSMVRPISLPDASHVFPAGKAIWVTGWGHTQYGGTNALILQKGEIRVINQTTCENLLPQLITPRMMCVGFLSGGVDSCDGDSGGPLSSVEADGRIFQAGVVSWGDGCAQRNKPGVYTRLPLFRDWIKENTGV
B10: Q38H/I41A/D60bW/ins97aV/F97D/T98P/F99L/C122S/I136M/Q192G/D217N (enzyme)
chain: VVGGTDADEGEWPWQVSLHALGHGHACGASLISPNWLVSAAHCYIDWRGFRYSDPTQWTAFLGLHDQSQRSAPGVQERRLKRIISHPFFNDDVPLDYDIALLELEKPAEYSSMVRPISLPDASHVFPAGKAMWVTGWGHTQYGGTGALILQKGEIRVINQTTCENLLPQQITPRMMCVGFLSGGVDSCGGDSGGPLSSVEADGRIFQAGVVSWGNGCAQRNKPGVYTRLPLFRDWIKENTGV
B11: Q38H/I41S/D60bF/F60eT/ins97aV/F97D/T98P/F99L/C122S/H143Q/G151N/Q175L/Q192G (enzyme)
chain: VVGGTDADEGEWPWQVSLHALGHGHSCGASLISPNWLVSAAHCYIDFRGTRYSDPTQWTAFLGLHDQSQRSAPGVQERRLKRIISHPFFNDDVPLDYDIALLELEKPAEYSSMVRPISLPDASHVFPAGKAIWVTGWGQTQYGGTNALILQKGEIRVINQTTCENLLPQLITPRMMCVGFLSGGVDSCGGDSGGPLSSVEADGRIFQAGVVSWGDGCAQRNKPGVYTRLPLFRDWIKENTGV
B12: Q38Y/I41S/D60bT/Y60gW/D96M/F97N/T98G/F99L/C122S/G151N/Q175L/Q192D (enzyme)
chain: VVGGTDADEGEWPWQVSLHALGYGHSCGASLISPNWLVSAAHCYIDTRGFRWSDPTQWTAFLGLHDQSQRSAPGVQERRLKRIISHPFFNMNGLDYDIALLELEKPAEYSSMVRPISLPDASHVFPAGKAIWVTGWGHTQYGGTNALILQKGEIRVINQTTCENLLPQLITPRMMCVGFLSGGVDSCDGDSGGPLSSVEADGRIFQAGVVSWGDGCAQRNKPGVYTRLPLFRDWIKENTGV
B13: Q38H/I41A/F60eH/Y60gW/ins97aE/F97T/T98G/F99L/C122S/Q175L/Q192A (enzyme)
chain: VVGGTDADEGEWPWQVSLHALGHGHACGASLISPNWLVSAAHCYIDDRGHRWSDPTQWTAFLGLHDQSQRSAPGVQERRLKRIISHPFFNDTEGLDYDIALLELEKPAEYSSMVRPISLPDASHVFPAGKAIWVTGWGHTQYGGTGALILQKGEIRVINQTTCENLLPQLITPRMMCVGFLSGGVDSCAGDSGGPLSSVEADGRIFQAGVVSWGDGCAQRNKPGVYTRLPLFRDWIKENTGV
B14: I41T/D60bW/F60eH/F97D/ins97aV/T98P/F99L/C122S/G151N/Q175L/Q192G (enzyme)
chain: VVGGTDADEGEWPWQVSLHALGQGHTCGASLISPNWLVSAAHCYIDWRGHRYSDPTQWTAFLGLHDQSQRSAPGVQERRLKRIISHPFFNDDVPLDYDIALLELEKPAEYSSMVRPISLPDASHVFPAGKAIWVTGWGHTQYGGTNALILQKGEIRVINQTTCENLLPQLITPRMMCVGFLSGGVDSCGGDSGGPLSSVEADGRIFQAGVVSWGDGCAQRNKPGVYTRLPLFRDWIKENTGV
B15: Q38H/I41S/D60bT/F60eS/Y60gW/D96F/F97Y/ins97aD/T98G/F99L/C122S/G151H/Q175L/Q192D (enzyme)
chain: VVGGTDADEGEWPWQVSLHALGHGHSCGASLISPNWLVSAAHCYIDTRGSRWSDPTQWTAFLGLHDQSQRSAPGVQERRLKRIISHPFFNFYDGLDYDIALLELEKPAEYSSMVRPISLPDASHVFPAGKAIWVTGWGHTQYGGTHALILQKGEIRVINQTTCENLLPQLITPRMMCVGFLSGGVDSCDGDSGGPLSSVEADGRIFQAGVVSWGDGCAQRNKPGVYTRLPLFRDWIKENTGV
B16: Q38H/I41A/D60bV/F60eR/Y60gW/D96F/F97S/ins97aH/T98G/F99L/C122S/G151N/Q175L/Q192G (enzyme)
chain: VVGGTDADEGEWPWQVSLHALGHGHACGASLISPNWLVSAAHCYIDVRGRRWSDPTQWTAFLGLHDQSQRSAPGVQERRLKRIISHPFFNFSHGLDYDIALLELEKPAEYSSMVRPISLPDASHVFPAGKAIWVTGWGHTQYGGTNALILQKGEIRVINQTTCENLLPQLITPRMMCVGFLSGGVDSCGGDSGGPLSSVEADGRIFQAGVVSWGDGCAQRNKPGVYTRLPLFRDWIKENTGV
B17: Q38H/I41S/D60bT/F60eS/Y60gW/ins97aV/T98P/F99L/C122S/G151H/Q175L/Q192E (enzyme)
chain: VVGGTDADEGEWPWQVSLHALGHGHSCGASLISPNWLVSAAHCYIDTRGSRWSDPTQWTAFLGLHDQSQRSAPGVQERRLKRIISHPFFNDFVPLDYDIALLELEKPAEYSSMVRPISLPDASHVFPAGKAIWVTGWGHTQYGGTHALILQKGEIRVINQTTCENLLPQLITPRMMCVGFLSGGVDSCEGDSGGPLSSVEADGRIFQAGVVSWGDGCAQRNKPGVYTRLPLFRDWIKENTGV
B18: I41S/F99L/C122S/G151N/Q175M/Q192G/D217V (enzyme)
chain: VVGGTDADEGEWPWQVSLHALGQGHSCGASLISPNWLVSAAHCYIDDRGFRYSDPTQWTAFLGLHDQSQRSAPGVQERRLKRIISHPFFNDFTLDYDIALLELEKPAEYSSMVRPISLPDASHVFPAGKAIWVTGWGHTQYGGTNALILQKGEIRVINQTTCENLLPQMITPRMMCVGFLSGGVDSCGGDSGGPLSSVEADGRIFQAGVVSWGVGCAQRNKPGVYTRLPLFRDWIKENTGV
B19: Q38R/I41S/D60bY/F60eD/ins97aV/F97D/T98P/F99L/C122S/G151N/Q175M/Q192A (enzyme)
chain: VVGGTDADEGEWPWQVSLHALGRGHSCGASLISPNWLVSAAHCYIDYRGDRYSDPTQWTAFLGLHDQSQRSAPGVQERRLKRIISHPFFNDDVPLDYDIALLELEKPAEYSSMVRPISLPDASHVFPAGKAIWVTGWGHTQYGGTNALILQKGEIRVINQTTCENLLPQMITPRMMCVGFLSGGVDSCAGDSGGPLSSVEADGRIFQAGVVSWGDGCAQRNKPGVYTRLPLFRDWIKENTGV
B20: Q38Y/I41S/D60bT/F60eR/Y60gW/D96M/T98G/F99L/C122S/G151N/Q175L/Q192D (enzyme)
chain: VVGGTDADEGEWPWQVSLHALGYGHSCGASLISPNWLVSAAHCYIDTRGRRWSDPTQWTAFLGLHDQSQRSAPGVQERRLKRIISHPFFNMFGLDYDIALLELEKPAEYSSMVRPISLPDASHVFPAGKAIWVTGWGHTQYGGTNALILQKGEIRVINQTTCENLLPQLITPRMMCVGFLSGGVDSCDGDSGGPLSSVEADGRIFQAGVVSWGDGCAQRNKPGVYTRLPLFRDWIKENTGV

Target: human complement protein C3 (human) (UniProt P01024)
Assay: cell-based or functional assay

Sequence of human complement protein C3 (human) (P01024 23-667, chain 1 of 2): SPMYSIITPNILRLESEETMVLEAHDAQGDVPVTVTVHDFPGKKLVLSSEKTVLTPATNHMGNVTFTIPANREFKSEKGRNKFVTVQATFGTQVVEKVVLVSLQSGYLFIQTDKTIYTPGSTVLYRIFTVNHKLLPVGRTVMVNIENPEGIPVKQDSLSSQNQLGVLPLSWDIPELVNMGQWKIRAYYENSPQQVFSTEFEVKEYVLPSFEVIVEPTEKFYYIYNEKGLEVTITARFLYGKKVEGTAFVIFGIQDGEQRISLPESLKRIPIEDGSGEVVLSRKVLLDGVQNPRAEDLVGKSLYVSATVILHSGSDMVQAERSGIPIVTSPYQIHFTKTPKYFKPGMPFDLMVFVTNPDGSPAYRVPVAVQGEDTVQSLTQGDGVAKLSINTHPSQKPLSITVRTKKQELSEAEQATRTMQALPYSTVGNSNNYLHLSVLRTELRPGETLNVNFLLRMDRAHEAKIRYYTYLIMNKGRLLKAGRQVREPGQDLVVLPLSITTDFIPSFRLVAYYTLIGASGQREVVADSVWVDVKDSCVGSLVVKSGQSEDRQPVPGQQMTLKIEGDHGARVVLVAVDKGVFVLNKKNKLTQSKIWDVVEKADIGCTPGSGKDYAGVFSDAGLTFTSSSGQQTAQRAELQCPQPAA
Sequence of human complement protein C3 (human) (P01024 672-1663, chain 2 of 2): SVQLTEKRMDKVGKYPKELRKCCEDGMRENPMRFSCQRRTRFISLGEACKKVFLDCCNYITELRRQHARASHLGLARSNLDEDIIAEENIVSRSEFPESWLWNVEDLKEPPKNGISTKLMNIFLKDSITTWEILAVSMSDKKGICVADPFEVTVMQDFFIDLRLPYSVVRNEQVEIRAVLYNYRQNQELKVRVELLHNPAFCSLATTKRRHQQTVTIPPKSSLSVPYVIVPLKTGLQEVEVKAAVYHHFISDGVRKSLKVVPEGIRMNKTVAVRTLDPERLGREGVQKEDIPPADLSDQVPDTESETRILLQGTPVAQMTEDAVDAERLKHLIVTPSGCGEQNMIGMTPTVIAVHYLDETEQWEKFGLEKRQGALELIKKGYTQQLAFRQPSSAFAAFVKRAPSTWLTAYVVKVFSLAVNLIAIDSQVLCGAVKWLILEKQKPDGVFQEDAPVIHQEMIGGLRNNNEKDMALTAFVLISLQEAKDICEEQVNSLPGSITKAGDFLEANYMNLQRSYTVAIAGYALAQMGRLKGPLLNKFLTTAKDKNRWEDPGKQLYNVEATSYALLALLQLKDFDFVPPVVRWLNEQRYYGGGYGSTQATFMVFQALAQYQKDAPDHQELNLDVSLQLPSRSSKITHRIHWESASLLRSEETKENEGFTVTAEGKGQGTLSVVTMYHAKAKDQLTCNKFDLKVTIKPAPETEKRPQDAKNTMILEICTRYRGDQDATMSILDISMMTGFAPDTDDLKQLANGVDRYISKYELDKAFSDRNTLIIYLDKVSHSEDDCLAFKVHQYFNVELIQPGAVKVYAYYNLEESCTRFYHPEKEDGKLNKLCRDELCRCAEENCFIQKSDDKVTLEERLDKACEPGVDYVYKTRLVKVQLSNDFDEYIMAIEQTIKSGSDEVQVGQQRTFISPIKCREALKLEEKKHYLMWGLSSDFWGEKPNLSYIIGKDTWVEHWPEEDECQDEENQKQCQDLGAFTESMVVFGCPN

Binder	EC50 (nM), cleavage of purified hC3 in vitro
B1	2.52 nM
B2	2.54 nM
B3	2.71 nM
B4	2.76 nM
B5	2.84 nM
B6	2.85 nM
B7	2.88 nM
B8	2.91 nM
B9	3.04 nM
B10	3.06 nM
B11	3.07 nM
B12	3.08 nM
B13	3.09 nM
B14	3.1 nM
B15	3.13 nM
B16	3.14 nM
B17	3.19 nM
B18	3.19 nM
B19	3.22 nM
B20	3.27 nM

— patent US20240018502A1
